One substance from patent US20160039904A1, “STABILIZED SINGLE HUMAN CD4 DOMAINS AND FUSION PROTEINS” (priority 2013, published 2016) can be followed below.

Assay [1] addresses gp140Con-s (HIV-1). Briefly: ELISA (OD 450 nm) on Cons gp140 (gp140Con-s), sCD4Fc titrated [A]. For orientation: An ELISA detects its analyte on a solid surface through an enzyme-linked reagent.
For assay [2], the target named is HIV-1 Env of isolate CH119 (HIV-1). Briefly: cell-based or functional assay.
Assay [3] deals with HIV-1 Env of isolate BZ167.ec9 (HIV-1). Description: cell-based or functional assay.
Assay [4] concerns the target HIV-1 Env of isolate GS-015.EC12 (HIV-1). Briefly: cell-based or functional assay.
Assay [5] deals with HIV-1 Env of isolate CNE64 (HIV-1). Description: cell-based or functional assay.
The target of assay [6] is HIV-1 Env of isolate CNE65 (HIV-1). Description: cell-based or functional assay.
The target in assay [7] is HIV-1 Env of isolate CNE1 (HIV-1). Briefly: cell-based or functional assay.
Assay [8] concerns the target HIV-1 Env of isolate CNE4 (HIV-1). Description: cell-based or functional assay.
The target in assay [9] is HIV-1 Env of isolate CNE15 (HIV-1). Description: cell-based or functional assay.
Assay [10] deals with HIV-1 Env of isolate CNE53 (HIV-1). Briefly: cell-based or functional assay.
In assay [11] the target is HIV-1 Env of isolate CH114 (HIV-1). Briefly: cell-based or functional assay.
For assay [12], the target named is HIV-1 Env of isolate CNE49 (HIV-1). Briefly: cell-based or functional assay.

A word on the EC50 (read off the curve): it is the midpoint of the concentration-response curve. Higher therefore signals lower potency in that assay. In assay [1], “D1D2Fc (from UniProt P01730 26-203) (Fc fusion)” gave an EC50 (read off the curve) of 1 nM. The neutralization IC50 turned out to be 85 nM in assay [2]; 12 nM in [5]; 15 nM in [6]; 197 nM in assay [7]; 3.9 nM in [8]; 106 nM in assay [9]. Moreover, the neutralization IC50 in assay [10] worked out at 14 nM; in assay [11], 23 nM; in assay [12], 21 nM. The neutralization IC90 in assay [2] was above 250 nM; in assay [5] it was 113 nM; in [6] it was 115 nM; in [7], above 250 nM; in assay [8], 24 nM; in [9], above 250 nM. In addition, the neutralization IC90 in assay [10] was above 250 nM; in assay [11], 198 nM; in assay [12] it was 224 nM. For the same substance, the IC50, neutralization in TZM-bl cell-based assay in assay [3] was 13 nM; in assay [4] it was 0.2 nM. This substance also returned an IC90, neutralization in TZM-bl cell-based assay in [3] of 60 nM.
